Assay results reported in patent US20240168030A1, “DIRECT FLUORESCENT GLYCAN LABELING” (BIO-TECHNE CORPORATION, priority 2019, published 2024).
One block for each molecule: values may come before it.

Columns and labels:
FUT9 = molecular target: T1, FUT9 (Homo sapiens, UniProt Q9Y231); test: Fluorescent labeling with fluorophore-conjugated fucose by FUT9; format: biochemical; conditions: 0.3 μg FUT9, 0.2 nmol donor, 30 μl, 37° C., FIG. 17
T1 construct: purchased Bio-Techne (Minneapolis, MN)
T1 sequence (Q9Y231 1-359): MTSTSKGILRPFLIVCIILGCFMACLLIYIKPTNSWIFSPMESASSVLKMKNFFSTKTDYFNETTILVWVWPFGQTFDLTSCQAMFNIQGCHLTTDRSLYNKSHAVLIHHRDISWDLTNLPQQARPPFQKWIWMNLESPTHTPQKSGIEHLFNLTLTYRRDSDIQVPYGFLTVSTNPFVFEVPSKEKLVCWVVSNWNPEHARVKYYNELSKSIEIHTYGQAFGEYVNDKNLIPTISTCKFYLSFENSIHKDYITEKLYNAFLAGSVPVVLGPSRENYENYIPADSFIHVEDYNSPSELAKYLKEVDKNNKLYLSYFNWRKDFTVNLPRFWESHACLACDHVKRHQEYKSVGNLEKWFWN
Experimental: (§1) FIG. 9A-FIG. 9B show exemplary results of probing substrate glycans of various fucosyltransferases on fetuin and asialofetuin. FIG. 9A. Probing substrate glycans of fucosyltransferases with guanosine 5′-diphosphate activated Cy5 conjugated fucose (GDP-Cy5-Fuc). […] FUT9 labeled itself (indicated by an arrow in the gel). FIG. 9B. Tolerance of Alexa-Fluor®555 (555), Alexa-Fluor®488 (488), and Cy5 by the indicated fucosyltransferases. All reactions were incubated at 37° C. for 30 minutes and then separated on SDS-PAGE and imaged with silver staining (upper panels) and fluorescent imager (lower panels). M, molecular marker.
FIG. 10A-FIG. 10D show exemplary results of probing core-6 fucosylation on antibodies by FUT8 incorporation of fluorophores. FIG. 10A. Results of probing substrate glycans of FUT8 (F8) and FUT9 (F9) on Cantuzumab, an anti-Muc1 therapeutic antibody, and NIST reference mAb 8671 using guanosine 5′-diphosphate activated Alexa-Fluor®555 conjugated fucose (GDP-AF555-Fuc) (555), GDP-Cy5-fucose (Cy5), and guanosine 5′-diphosphate activated Alexa-Fluor®488 conjugated fucose (GDP-AF488-Fuc) (488) as donor substrates. Cantuzumab was expressed in FUT8 knockout cells and is devoid of core-6 fucose. Molecular marker (MM) is a prestained Western molecular marker (Bio-Rad Laboratories, Hercules, CA). […] The product of each reaction was separated using SDS-PAGE and imaged with trichloroethanol (TCE) staining (upper panel) and fluorescent imager (lower panel). Labeling on the light chains of the antibodies by Alexa-Fluor®555 is likely the result of non-specific staining due to the use of unpurified GDP-AF555-Fuc that contained free Alexa-Fluor®555. FIG. 10B. […] FIG. 10C. […] FIG. 10D. Schematics of the glycan structures analyzed in FIG. 10B and FIG. 10C.
Mouse IgG (R&D Systems, Minneapolis, MN) was digested with Endo S thoroughly and labeled with 0.3 μg of FUT9 and 0.2 nmol of GDP-Cy5-Fuc in 30 μl at 37° C. for the indicated time points. The glycans were also pretreated with B4GalT2 for 5 minutes at 37° C. and then labeled in the same way. The reactions were separated on 15% SDS PAGE. B4GalT2 pretreatment converted all G1′ to G2′. Maximal labeling on G1′ and G2′ were achieved around 30 minutes. […] The heavy chain (HC) and light chain (LC) were visible in the TCE image. M, Western blot marker (Bio-Rad Laboratories, Hercules, CA).
(§2) For a typical labeling reaction, 1 μg to 5 μg target protein was mixed with 0.2 nmol GDP-f-Fuc and 0.2 μg of a fucosyltransferase in 30 μL buffer of 25 mM Tris pH 7.5, 10 mM MnCl2. The mixture was incubated at 37° C. for 30 minutes. The reaction was then separated by sodium dodecyl sulfate—polyacrylamide gel electrophoresis (SDS-PAGE) and the gel was directly imaged using a fluorescent imager FluorChem M ProteinSimple, Bio-Techne, Minneapolis, MN), followed by imaging with traditional protein imaging methods such as silver staining or trichloroethanol (TCE) staining.
The four enzymes tolerated the three fluorophores to different levels.

[1] = system: fetal bovine fetuin and asialofetuin; test: Labeling of fetuin and asialofetuin by sialyltransferases with CMP-f-SA; format: biochemical; conditions: CMP-f-SA donors, FIG. 2
[2] = Enzymatic synthesis of Le^x and sLe^x by glycan gel electrophoresis, substrate G2; format: biochemical; conditions: for Relative activity: normalized to FUT6 on sLe^x synthesis
Experimental: FIG. 21A. Schematic view of the enzymatic steps for Le^X and sLe^X synthesis on the antibody glycan G0. The glycan short names follow that of FIG. 10. FIG. 21B Kinetic comparison of galactosylation on G0 by B4GalT1, sialyation on G2 by ST3Gal4 and ST6Gal1, and fucosylation on A2[3] by FUT7. The reaction time for B4GalT1 was 10 minutes. The reaction time for ST3Gal4, FUT7 and ST6Gal1 was 5 hours. In each case, the labeling enzyme was subject to a 3-fold serial dilution starting from 1 μg each of B4GalT1, FUT7 and ST6Gal1, and 3 μg ST3Gal4. FIG. 21C. […] Reaction time for both cases was 20 minutes. […] FIG. 21D. […] Reaction time for both cases was 20 minutes.
For a typical labeling reaction, 1 μg to 5 μg target protein was mixed with 0.2 nmol fluorophore-conjugated GDP-fucose and 0.2 μg of a fucosyltransferase in 30μL 25 mM Tris pH 7.5, 10 mM MnCl2. The mixture was incubated at 37° C. for 30 minutes. […] To release labeled glycans from a glycoprotein, the sample was first denatured by heating at 95° C. for two minutes in the presence of 0.5% SDS and 80 mM β-mercaptoethanol and then renatured with 1% Triton X-100, and finally treated with PNGase F at 10:1 mass ratio at 37° C. for 20 minutes. To release glycans from antibody, a sample was directly treated with Endo S at 10:1 mass ratio at 37° C. for 20 minutes. All samples were separated by sodium dodecyl sulfate—polyacrylamide gel electrophoresis (SDS-PAGE) at […]. For separating labeled glycoproteins and antibodies, 4-20% gradient SDS gel was used. For separating labeled free glycans, 15% or 17% gel was used. After separation, all gels were imaged using a FluorChem M imager (ProteinSimple, Bio-Techne, Minneapolis, MN). For glycoproteins samples, the gel was also imaged with traditional methods such as silver staining or trichloroethanol (TCE) staining.
For sLe^x synthesis, G0 was first converted to G2 by B4GalT1, then converted to A2[3] by ST3Gal4, and finally converted to A2[3]F2 (carrier of sLe^x) by FUT7 (FIG. 21A). During these steps, different amounts of enzymes, and multiple reaction times were applied to reveal the intermediate products.
Intermediate products are signs for the progress of each enzymatic step.

asialofetuin = test: Asialofetuin labeling with variable amounts of ST3Gal1 or ST6Gal1 (FIG. 7); format: biochemical, bovine; conditions: 5 μg asialofetuin, 0.2 nmol CMP-Cy5-SA, 30 μL, 37° C., 30 minutes
[3] = system: fetal bovine fetuin and asialofetuin; test: Labeling of fetuin and asialofetuin by fucosyltransferases with GDP-Cy5-Fuc; format: biochemical; conditions: GDP-Cy5-Fuc donor, FIG. 9A
Experimental: as §1, §2
The labeled samples were then separated on SDS-PAGE, followed by traditional protein gel imaging and fluorescent imaging.

Molecule: guanosine 5′-diphosphate activated Cy5 conjugated fucose [GDP-Cy5-Fuc]
Time to maximal labeling of B4GalT2 by FUT9 (FUT9): 20 min | Time to maximal labeling on G1′ and G2′ by FUT9 (FUT9; Endo S digested mouse IgG): around 30 minutes

B3: α-2,3-sialyltransferase 4 (protein, UniProt Q11206 1-333, looked up)
CMP-N-acetylneuraminate-beta-g …: MVSKSRWKLLAMLALVLVVMVWYSISREDRYIELFYFPIPEKKEPCLQGEAESKASKLFGNYSRDQPIFLRLEDYFWVKTPSAYELPYGTKGSEDLLLRVLAITSSSIPKNIQSLRCRRCVVVGNGHRLRNSSLGDAINKYDVVIRLNNAPVAGYEGDVGSKTTMRLFYPESAHFDPKVENNPDTLLVLVAFKAMDFHWIETILSDKKRVRKGFWKQPPLIWDVNPKQIRILNPFFMEIAADKLLSLPMQQPRKIKQKPTTGLLAITLALHLCDLVHIAGFGYPDAYNKKQTIHYYEQITLKSMAGSGHNVSQEALAIKRMLEMGAIKNLTSF
notes: recombinant human sialyltransferase, N-glycan specific
Which of fetuin and asialofetuin the sialyltransferase labeled [1]: only labeled asialofetuin | Time for the complete conversion of G2 to A2[3] ([2]; FIG. 21B): 5 h | Activity based on reaction completion ([2]; substrate G2, completed product A2[3]): 0.0084 pmol/min/µg | Relative activity ([2]; substrate G2, product A2[3]): 0.06

B4: α-2,3-sialyltransferase 1 (protein, UniProt Q11201 1-340, looked up)
CMP-N-acetylneuraminate-beta-g …: MVTLRKRTLKVLTFLVLFIFLTSFFLNYSHTMVATTWFPKQMVLELSENLKRLIKHRPCTCTHCIGQRKLSAWFDERFNQTMQPLLTAQNALLEDDTYRWWLRLQREKKPNNLNDTIKELFRVVPGNVDPMLEKRSVGCRRCAVVGNSGNLRESSYGPEIDSHDFVLRMNKAPTAGFEADVGTKTTHHLVYPESFRELGDNVSMILVPFKTIDLEWVVSAITTGTISHTYIPVPAKIRVKQDKILIYHPAFIKYVFDNWLQGHGRYPSTGILSVIFSMHVCDEVDLYGFGADSKGNWHHYWENNPSAGAFRKTGVHDADFESNVTATLASINKIRIFKGR
notes: recombinant human sialyltransferase, Core-1 O-glycan specific
Which of fetuin and asialofetuin the sialyltransferase labeled [1]: only labeled asialofetuin | Enzyme amount achieving maximal labeling of asialofetuin (asialofetuin): 0.5 µg | Enzyme amount showing clear visible labeling on asialofetuin (asialofetuin): 0.063 µg

B5: FUT2: recombinant fucosyltransferase, α1-2 linked fucose (protein, UniProt Q10981 1-343, looked up)
Galactoside …: MLVVQMPFSFPMAHFILFVFTVSTIFHVQQRLAKIQAMWELPVQIPVLASTSKALGPSQLRGMWTINAIGRLGNQMGEYATLYALAKMNGRPAFIPAQMHSTLAPIFRITLPVLHSATASRIPWQNYHLNDWMEEEYRHIPGEYVRFTGYPCSWTFYHHLRQEILQEFTLHDHVREEAQKFLRGLQVNGSRPGTFVGVHVRRGDYVHVMPKVWKGVVADRRYLQQALDWFRARYSSLIFVVTSNGMAWCRENIDTSHGDVVFAGDGIEGSPAKDFALLTQCNHTIMTIGTFGIWAAYLTGGDTIYLANYTLPDSPFLKIFKPEAAFLPEWTGIAADLSPLLKH
Which of fetuin and asialofetuin the fucosyltransferase labeled [3]: labeled asialofetuin

More lines, main results first:

Which of fetuin and asialofetuin the sialyltransferase labeled [1]: only labeled asialofetuin | Enzyme amount achieving maximal labeling of asialofetuin (asialofetuin): 0.25 µg | Enzyme amount showing clear visible labeling on asialofetuin (asialofetuin): 0.016 µg
B1: α-2,6-sialyltransferase 1 (protein, UniProt P15907 1-406, looked up)
Beta-galactoside …: MIHTNLKKKFSCCVLVFLLFAVICVWKEKKKGSYYDSFKLQTKEFQVLKSLGKLAMGSDSQSVSSSSTQDPHRGRQTLGSLRGLAKAKPEASFQVWNKDSSSKNLIPRLQKIWKNYLSMNKYKVSYKGPGPGIKFSAEALRCHLRDHVNVSMVEVTDFPFNTSEWEGYLPKESIRTKAGPWGRCAVVSSAGSLKSSQLGREIDDHDAVLRFNGAPTANFQQDVGTKTTIRLMNSQLVTTEKRFLKDSLYNEGILIVWDPSVYHSDIPKWYQNPDYNFFNNYKTYRKLHPNQPFYILKPQMPWELWDILQEISPEEIQPNPPSSGMLGIIIMMTLCDQVDIYEFLPSKRKTDVCYYYQKFFDSACTMGAYHPLLYEKNLVKHLNQGTDEDIYLLGKATLPGFRTIHC
notes: as for B3
Time for the complete conversion of G2 to A2[6] ([2]; FIG. 21B): 5 h | Activity based on reaction completion ([2]; substrate G2, completed product A2[6]): 0.025 pmol/min/µg | Relative activity ([2]; substrate G2, product A2[6]): 0.19

Which of fetuin and asialofetuin the sialyltransferase labeled [1]: labeled both fetuin and asialofetuin
B2: α-N-acetylgalactosaminide α-2,6-sialyltransferase 2 (protein, UniProt Q9UJ37 1-374, looked up)
Alpha-N-acetylgalactosaminide …: MGLPRGSFFWLLLLLTAACSGLLFALYFSAVQRYPGPAAGARDTTSFEAFFQSKASNSWTGKGQACRHLLHLAIQRHPHFRGLFNLSIPVLLWGDLFTPALWDRLSQHKAPYGWRGLSHQVIASTLSLLNGSESAKLFAPPRDTPPKCIRCAVVGNGGILNGSRQGPNIDAHDYVFRLNGAVIKGFERDVGTKTSFYGFTVNTMKNSLVSYWNLGFTSVPQGQDLQYIFIPSDIRDYVMLRSAILGVPVPEGLDKGDRPHAYFGPEASASKFKLLHPDFISYLTERFLKSKLINTHFGDLYMPSTGALMLLTALHTCDQVSAYGFITSNYWKFSDHYFERKMKPLIFYANHDLSLEAALWRDLHKAGILQLYQR
notes: sialyltransferase, O-GalNAc specific
